Experimental data taken from patent US5493008A, “Two non-contiguous regions contribute to nidogen binding to a single EGF-like motif of the laminin γ1 chain” (The University Of Virginia Patent Foundation, priority 1994, dated 1996).
Like-named read-outs stand apart in the source and are kept apart here. Where no end group is shown, it is not given here. The star is where a group is joined. Succinimide(1-Et,3-yl) = CCN1C(=O)CC(*)C1=O

T1: recombinant nidogen (Mus musculus (Mouse), UniProt P10493)
T1 sequence: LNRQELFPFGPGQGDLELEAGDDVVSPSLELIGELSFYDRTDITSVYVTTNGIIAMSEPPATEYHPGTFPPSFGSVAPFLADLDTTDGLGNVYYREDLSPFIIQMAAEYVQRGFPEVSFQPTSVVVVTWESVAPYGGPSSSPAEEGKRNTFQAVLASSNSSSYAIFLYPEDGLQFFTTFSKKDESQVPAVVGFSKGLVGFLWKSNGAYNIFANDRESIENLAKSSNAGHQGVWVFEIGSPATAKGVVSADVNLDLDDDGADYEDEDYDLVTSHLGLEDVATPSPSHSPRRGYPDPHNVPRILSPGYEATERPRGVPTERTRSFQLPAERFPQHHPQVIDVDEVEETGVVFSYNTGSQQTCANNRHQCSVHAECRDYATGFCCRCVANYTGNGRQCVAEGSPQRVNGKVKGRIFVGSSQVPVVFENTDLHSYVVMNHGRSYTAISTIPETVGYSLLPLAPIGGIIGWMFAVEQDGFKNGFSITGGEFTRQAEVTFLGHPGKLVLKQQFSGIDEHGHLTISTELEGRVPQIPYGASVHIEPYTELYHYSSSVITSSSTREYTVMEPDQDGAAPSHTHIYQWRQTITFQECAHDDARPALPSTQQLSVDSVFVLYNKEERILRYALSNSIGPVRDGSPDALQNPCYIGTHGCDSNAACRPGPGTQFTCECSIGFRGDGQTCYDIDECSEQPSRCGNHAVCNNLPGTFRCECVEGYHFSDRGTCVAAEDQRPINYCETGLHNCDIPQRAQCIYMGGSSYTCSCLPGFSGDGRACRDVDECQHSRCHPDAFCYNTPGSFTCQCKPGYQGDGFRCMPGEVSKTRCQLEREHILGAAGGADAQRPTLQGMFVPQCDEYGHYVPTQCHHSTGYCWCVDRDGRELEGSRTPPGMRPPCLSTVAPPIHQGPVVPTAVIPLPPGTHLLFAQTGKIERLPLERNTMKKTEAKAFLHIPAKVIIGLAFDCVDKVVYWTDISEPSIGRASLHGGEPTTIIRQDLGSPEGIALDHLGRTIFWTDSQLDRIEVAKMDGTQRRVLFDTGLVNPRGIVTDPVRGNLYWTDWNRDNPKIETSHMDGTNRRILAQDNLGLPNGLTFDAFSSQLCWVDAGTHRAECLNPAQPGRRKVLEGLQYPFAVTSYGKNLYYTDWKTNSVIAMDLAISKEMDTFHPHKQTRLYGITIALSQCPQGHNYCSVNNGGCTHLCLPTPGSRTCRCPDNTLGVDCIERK

T2: recombinant nidogen (Mus musculus (Mouse)) (UniProt P10493)
T2 sequence: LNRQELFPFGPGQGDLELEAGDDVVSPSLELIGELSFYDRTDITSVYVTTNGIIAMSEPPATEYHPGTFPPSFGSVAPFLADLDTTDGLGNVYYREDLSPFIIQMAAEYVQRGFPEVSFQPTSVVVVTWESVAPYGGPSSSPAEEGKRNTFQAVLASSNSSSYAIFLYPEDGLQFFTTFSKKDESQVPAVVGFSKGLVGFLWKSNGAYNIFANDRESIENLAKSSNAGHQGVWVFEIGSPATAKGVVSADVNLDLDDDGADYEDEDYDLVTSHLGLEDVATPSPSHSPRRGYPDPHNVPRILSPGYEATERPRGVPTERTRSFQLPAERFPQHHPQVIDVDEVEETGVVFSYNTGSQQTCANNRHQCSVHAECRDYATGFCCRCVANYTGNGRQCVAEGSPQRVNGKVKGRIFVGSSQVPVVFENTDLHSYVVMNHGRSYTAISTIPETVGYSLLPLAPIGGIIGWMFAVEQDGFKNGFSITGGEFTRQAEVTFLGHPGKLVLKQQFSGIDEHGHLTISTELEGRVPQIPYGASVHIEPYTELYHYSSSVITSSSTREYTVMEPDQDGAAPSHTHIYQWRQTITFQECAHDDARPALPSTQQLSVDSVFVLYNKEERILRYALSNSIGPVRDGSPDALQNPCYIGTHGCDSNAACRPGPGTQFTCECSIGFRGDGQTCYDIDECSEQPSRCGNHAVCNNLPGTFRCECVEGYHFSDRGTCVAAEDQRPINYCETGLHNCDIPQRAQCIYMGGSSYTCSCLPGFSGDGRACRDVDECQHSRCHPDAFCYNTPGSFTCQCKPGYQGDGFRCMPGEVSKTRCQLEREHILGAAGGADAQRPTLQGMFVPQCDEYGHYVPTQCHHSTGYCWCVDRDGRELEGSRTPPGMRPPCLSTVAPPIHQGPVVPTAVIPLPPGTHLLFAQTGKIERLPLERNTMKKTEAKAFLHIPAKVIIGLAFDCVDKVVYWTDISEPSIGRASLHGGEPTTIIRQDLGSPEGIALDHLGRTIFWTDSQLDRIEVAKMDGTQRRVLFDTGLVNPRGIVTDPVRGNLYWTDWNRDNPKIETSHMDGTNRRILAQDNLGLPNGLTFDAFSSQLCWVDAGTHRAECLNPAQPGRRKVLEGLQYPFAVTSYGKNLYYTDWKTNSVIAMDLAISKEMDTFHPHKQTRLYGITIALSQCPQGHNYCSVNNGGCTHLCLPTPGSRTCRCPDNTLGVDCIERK


How the values were obtained:
recombinant nidogen [1] = biological target: T1, recombinant nidogen; assay: radioligand competition assay: inhibitor varied, 0.2 nM recombinant nidogen, 125I-laminin fragment P1
Description: (§1) A radioligand competition assay was used for measurement of relative binding affinities (Mann K. et al. (1988), Eur. J. Biochem., 178, 71–80; Fox, J. W. et al. (1991), EMBO J., 10, 3137–3146). A fixed concentration of recombinant nidogen (0.2 nM) was incubated overnight at 4° C. with inhibitors at varying concentrations, followed by the addition of ^125I-labeled laminin fragment P1 (0.01 nM; 10,000–20,000 c.p.m.) for the same incubation period. Bound and non-bound fragment P1 was then separated by antibodies against nidogen.

recombinant nidogen [2] = biological target: T1, recombinant nidogen; assay: radioligand competition assay, reduced and alkylated against the non-reduced chimera
Description: as §1

recombinant nidogen [3] = biological target: T1, recombinant nidogen; assay: radioligand competition assay
Description: as §1

recombinant nidogen [4] = biological target: T1, recombinant nidogen; assay: radioligand competition assay: inhibitor varied, 0.2 nM recombinant nidogen, 125I-laminin fragment P1; remark: listed apart in the source
Description: as §1

recombinant nidogen [5] = biological target: T1, recombinant nidogen; assay: radioligand competition assay, nitrated γ1III3-5
Description: as §1

recombinant nidogen [6] = biological target: T1, recombinant nidogen; assay: radioligand competition assay, Tyr-acetylated γ1III3-5
Description: as §1

[7] = biological target: T2, recombinant nidogen (Mus musculus (Mouse)); assay: radioligand competition assay, synthetic heptapeptide variant
[8] = biological target: T2, recombinant nidogen (Mus musculus (Mouse)); assay: radioligand competition assay: inhibitor varied, 0.2 nM recombinant nidogen, 125I-laminin fragment P1
recombinant nidogen [9] = biological target: T1, recombinant nidogen; assay: as above; remark: listed apart in the source
Description: as §1

recombinant nidogen [10] = biological target: T1, recombinant nidogen; assay: radioligand competition assay; end of the range tied to this mutant by its IC50 in Table IV
Description: as §1

| IC50 (recombinant nidogen [1]) [nM] | IC50 (recombinant nidogen [4]) [nM] | Binder | also measured |
| --- | --- | --- | --- |
| 3 |  | γ1III4Y819-A (other) PCQCNDNIDPNAVGNCNRLTGECLKCIANTAGFYCDRCKEGFFGNPLAPNPADKCK | fold reduction in activity against wild-type γ1III4 (recombinant nidogen [10]): 30 to 60 fold |
| 0.06 |  | γ1III4Y825-A (other) PCQCNDNIDPNAVGNCNRLTGECLKCIYNTAGFACDRCKEGFFGNPLAPNPADKCK |  |
| 1000 |  | γ1III4D800-N (other) PCQCNDNINPNAVGNCNRLTGECLKCIYNTAGFYCDRCKEGFFGNPLAPNPADKCK |  |
| 1.5 |  | γ1III4Y819/825-A (other) PCQCNDNIDPNAVGNCNRLTGECLKCIANTAGFACDRCKEGFFGNPLAPNPADKCK | fold reduction in activity against wild-type γ1III4 (recombinant nidogen [10]): 30 to 60 fold |

The next lines start with the binder.

| Binder | IC50 (recombinant nidogen [1]) [nM] | IC50 (recombinant nidogen [4]) [nM] | also measured |
| --- | --- | --- | --- |
| γ1III3ab4cd, reduced (other) PC(Succinimide(1-Et,3-yl))PC(Succinimide(1-Et,3-yl))PGGSSC(Succinimide(1-Et,3-yl))AIVPKTKEVVC(Succinimide(1-Et,3-yl))THC(Succinimide(1-Et,3-yl))IYNTAGFYC(Succinimide(1-Et,3-yl))DRC(Succinimide(1-Et,3-yl))KEGFFGNPLAPNPADKC(Succinimide(1-Et,3-yl))K | 6700 |  | fold decrease in activity on reduction and alkylation (recombinant nidogen [2]): 6 fold |
| PCQCNDNTDPNAVGNCNRLTGECL (disulfide (positions not given here)) [synthetic loop a,b, oxidized (792-815)] | 270 | 380 | fold higher IC50 than fragment P1 (recombinant nidogen [3]): 5000 fold |
| γ1III3-5, Lys acetylation (other, lysine amino groups acetylated with acetic acid anhydride) PCPCPGGSSCAIVPKTKEVVCTHCPTGTAGKRCELCDDGYFGDPLGSNGPVRLCRPCQCNDNIDPNAVGNCNRLTGECLKCIYNTAGFYCDRCKEGFFGNPLAPNPADKCKACACNPYGTVQQQSSCNPVTGQCQCLPHVSGRDCGTCDPGYYNLQSGQGCE |  | 0.27 | fold decrease in binding activity against unmodified γ1III3-5 (recombinant nidogen [3]): 7 fold |
| nitrated γ1III3-5 (other, tyrosines nitrated with tetranitromethane) PCPCPGGSSCAIVPKTKEVVCTHCPTGTAGKRCELCDDGYFGDPLGSNGPVRLCRPCQCNDNIDPNAVGNCNRLTGECLKCIYNTAGFYCDRCKEGFFGNPLAPNPADKCKACACNPYGTVQQQSSCNPVTGQCQCLPHVSGRDCGTCDPGYYNLQSGQGCE |  | 3 | fold decrease in binding activity against unmodified γ1III3-5 (recombinant nidogen [5]): 75 fold |
| γ1III3-5, Tyr acetylation (other, tyrosine hydroxyl groups acetylated with acetic acid anhydride) PCPCPGGSSCAIVPKTKEVVCTHCPTGTAGKRCELCDDGYFGDPLGSNGPVRLCRPCQCNDNIDPNAVGNCNRLTGECLKCIYNTAGFYCDRCKEGFFGNPLAPNPADKCKACACNPYGTVQQQSSCNPVTGQCQCLPHVSGRDCGTCDPGYYNLQSGQGCE |  | 3 | fold decrease in binding activity against unmodified γ1III3-5 (recombinant nidogen [6]): 75 fold |
| NINPNAV |  |  | fold reduction in activity against the heptapeptide NIDPNAV [7]: 100 fold; IC50 [8]: 100000 nM |
| NIDPNAV [heptapeptide NIDPNAV (S, 798-804)] |  | 800 | IC50 (recombinant nidogen [9]): 900 nM |
| NVDPNAV |  |  | IC50 (recombinant nidogen [9]): 1200 nM |
